Peptide exchange data for 67 substances are collected here from patent publication US20220289816A1, “IMMUNOTHERAPY WITH B*07 RESTRICTED PEPTIDES AND COMBINATION OF PEPTIDES AGAINST CANCERS AND RELATED METHODS” (Immatics Biotechnologies GmbH, priority 2018, published 2022).

This experiment concerns the target HLA-B*07 (Homo sapiens, UniProt P01889). As to the kind of experiment: MHC binding assay (UV-ligand exchange, ELISA of stabilized MHC complexes). Conditions: peptide exchange yield on HLA-B*07, UV-ligand exchange. From the text:
Candidate peptides for T cell based therapies according to the present invention were further tested for their MHC binding capacity (affinity). The individual peptide-MHC complexes were produced by UV-ligand exchange, where a UV-sensitive peptide is cleaved upon UV-irradiation and exchanged with the peptide of interest as analyzed. Only peptide candidates that can effectively bind and stabilize the peptide-receptive MHC molecules prevent dissociation of the MHC complexes. To determine the yield of the exchange reaction, an ELISA was performed based on the detection of the light chain (β2m) of stabilized MHC complexes. The assay was performed as generally described in Rodenko et al. (Rodenko et al., 2006)
96 well MAXISorp plates (NUNC) were coated over night with 2 ug/ml streptavidin in PBS at room temperature, washed 4× and blocked for 1 h at 37° C. in 2% BSA containing blocking buffer. […] Peptide-MHC monomers of the UV-exchange reaction were diluted 100-fold in blocking buffer. Samples were incubated for 1 h at 37° C., washed four times, incubated with 2 ug/ml HRP conjugated anti-[…] for 1 h at 37° C., washed again and detected with TMB solution that is stopped with […]. Absorption was measured at 450 nm. Candidate peptides that show a high exchange yield (preferably higher than 50%, most preferred higher than 75%) are generally preferred for a generation and production of antibodies or fragments thereof, and/or T cell receptors or fragments thereof, as they show sufficient avidity to the MHC molecules and prevent dissociation of the MHC complexes.
Consider “181 (LPVSPARAL; listed as Homo sapiens) [compound 181]”, for which the Peptide exchange result was “+++ (>50 = +++)”.

For “182 (RPLPVSPARAL; listed as Homo sapiens) [compound 182]”, the Peptide exchange entry is on record as “+++ (>50 = +++)”.

Turning to “183 (VPRRPARAL; listed as Homo sapiens) [compound 183]”, the Peptide exchange result is “+++ (>50 = +++)”.

Regarding “184 (KIIASGNHL; listed as Homo sapiens) [compound 184]”, the Peptide exchange entry is listed as “++ (>20% = ++)”.

Consider “185 (RPVLTASSF; listed as Homo sapiens) [compound 185]”, for which the Peptide exchange result is given as “++++ (>75% = ++++)”.

Regarding “186 (VPLPAGGGTVLT; listed as Homo sapiens) [compound 186]”, the Peptide exchange result is recorded as “+ (>10% = +)”.

With “187 (APPPPPPPF; listed as Homo sapiens) [compound 187]”, the Peptide exchange entry is recorded as “++++ (>75% = ++++)”.

Consider “188 (HAAASFETL; listed as Homo sapiens) [compound 188]”, for which the Peptide exchange result is reported as “++ (>20% = ++)”.

As to “189 (QPQCSTHIL; listed as Homo sapiens) [compound 189]”, the Peptide exchange entry was “++++ (>75% = ++++)”.

Turning to “190 (RLAHVRARL; listed as Homo sapiens) [compound 190]”, the Peptide exchange entry is given as “+++ (>50 = +++)”.

As for “191 (KPKAVKPKAA; listed as Homo sapiens) [compound 191]”, the Peptide exchange result is “++++ (>75% = ++++)”.

Take “192 (IPFADVKSF; listed as Homo sapiens) [compound 192]”: the Peptide exchange result is reported as “++ (>20% = ++)”.

In the case of “193 (LPALKEEAF; listed as Homo sapiens) [compound 193]”, the Peptide exchange entry is “++++ (>75% = ++++)”.

Turning to “194 (HPNKIKASL; listed as Homo sapiens) [compound 194]”, the Peptide exchange entry is on record as “+++ (>50 = +++)”.

“195 (NPIFGRKEL; listed as Homo sapiens) [compound 195]”: the Peptide exchange result was “+++ (>50 = +++)”.

Regarding “196 (RPSGTAGAAL; listed as Homo sapiens) [compound 196]”, the Peptide exchange entry was “+++ (>50 = +++)”.

Take “197 (RPSGTAGAALLA; listed as Homo sapiens) [compound 197]”: the Peptide exchange result is recorded as “++ (>20% = ++)”.

As to “198 (LPSPAHAFRAL; listed as Homo sapiens) [compound 198]”, the Peptide exchange entry is listed as “+++ (>50 = +++)”.

For the substance “199 (SPFWIHQA; listed as Homo sapiens) [compound 199]”, the Peptide exchange result is “++ (>20% = ++)”.

Take “201 (LPIARVLTV; listed as Homo sapiens) [compound 201]”: the Peptide exchange entry is recorded as “++++ (>75% = ++++)”.

As for “202 (SPSREASAL; listed as Homo sapiens) [compound 202]”, the Peptide exchange entry was “+++ (>50 = +++)”.

As for “203 (KPRGPIDI; listed as Homo sapiens) [compound 203]”, the Peptide exchange result was “++ (>20% = ++)”.

Consider “204 (FPYSGDKILV; listed as Homo sapiens) [compound 204]”, for which the Peptide exchange result was “+++ (>50 = +++)”.

“206 (TPRIGPKVSL; listed as Homo sapiens) [compound 206]”: the Peptide exchange entry was “+++ (>50 = +++)”.

In the case of “207 (VPSDITTAF; listed as Homo sapiens) [compound 207]”, the Peptide exchange result was “+++ (>50 = +++)”.

Take “208 (RNRQVATAL; listed as Homo sapiens) [compound 208]”: the Peptide exchange result is “+++ (>50 = +++)”.

For “209 (KIEQIRAVL; listed as Homo sapiens) [compound 209]”, the Peptide exchange entry is given as “+++ (>50 = +++)”.

As to “210 (IPENRVVSY; listed as Homo sapiens) [compound 210]”, the Peptide exchange result is given as “++ (>20% = ++)”.

For “211 (IPDTIASVL; listed as Homo sapiens) [compound 211]”, the Peptide exchange entry is listed as “+++ (>50 = +++)”.

On to “212 (VPYAAQAAL; listed as Homo sapiens) [compound 212]”, for which the Peptide exchange result is listed as “++++ (>75% = ++++)”.

In the case of “213 (RPYQDAPVA; listed as Homo sapiens) [compound 213]”, the Peptide exchange entry is reported as “++++ (>75% = ++++)”.

Turning to “214 (LPLKFFPII; listed as Homo sapiens) [compound 214]”, the Peptide exchange result was “+ (>10% = +)”.

Take “215 (IPVAIKEL; listed as Homo sapiens) [compound 215]”: the Peptide exchange entry is “++ (>20% = ++)”.

Take “216 (LPWEQNEQV; listed as Homo sapiens) [compound 216]”: the Peptide exchange result is recorded as “+++ (>50 = +++)”.

As to “217 (SPGDKRLAAYL; listed as Homo sapiens) [compound 217]”, the Peptide exchange result was “+++ (>50 = +++)”.

Consider “219 (VPHTGRYTCL; listed as Homo sapiens) [compound 219]”, for which the Peptide exchange entry is listed as “+++ (>50 = +++)”.

Turning to “220 (RPAPGPAPFV; listed as Homo sapiens) [compound 220]”, the Peptide exchange entry is listed as “+++ (>50 = +++)”.

As to “221 (LPQRPNARL; listed as Homo sapiens) [compound 221]”, the Peptide exchange entry is on record as “+++ (>50 = +++)”.

In the case of “222 (MLKTTLTAF; listed as Homo sapiens) [compound 222]”, the Peptide exchange result was “+ (>10% = +)”.

Turning to “223 (KAHVRIEL; listed as Homo sapiens) [compound 223]”, the Peptide exchange entry was “++ (>20% = ++)”.

On to “224 (SPIIHSILL; listed as Homo sapiens) [compound 224]”, for which the Peptide exchange result is listed as “++++ (>75% = ++++)”.

With “225 (SPIIHSIL; listed as Homo sapiens) [compound 225]”, the Peptide exchange result is “+++ (>50 = +++)”.

For the substance “226 (APGGSSRSSL; listed as Homo sapiens) [compound 226]”, the Peptide exchange entry is “+++ (>50 = +++)”.

Turning to “227 (RPGTGQGGL; listed as Homo sapiens) [compound 227]”, the Peptide exchange result was “+++ (>50 = +++)”.

“228 (RPTAASQSRAL; listed as Homo sapiens) [compound 228]”: the Peptide exchange entry is “+++ (>50 = +++)”.

Regarding “229 (FPNAGPRHLL; listed as Homo sapiens) [compound 229]”, the Peptide exchange result was “+++ (>50 = +++)”.

For “230 (DVIDDIISL; listed as Homo sapiens) [compound 230]”, the Peptide exchange result is recorded as “++++ (>75% = ++++)”.

With “231 (SPITLQAL; listed as Homo sapiens) [compound 231]”, the Peptide exchange entry is given as “++++ (>75% = ++++)”.

Turning to “232 (TAYPSLRLL; listed as Homo sapiens) [compound 232]”, the Peptide exchange entry is “+++ (>50 = +++)”.

As to “233 (MAYDRFIAI; listed as Homo sapiens) [compound 233]”, the Peptide exchange result is on record as “+++ (>50 = +++)”.

Regarding “234 (HPRAPGEQQRL; listed as Homo sapiens) [compound 234]”, the Peptide exchange entry is “+++ (>50 = +++)”.

Regarding “235 (AQNPAGTAL; listed as Homo sapiens) [compound 235]”, the Peptide exchange result was “+ (>10% = +)”.

On to “236 (TPELKSSIL; listed as Homo sapiens) [compound 236]”, for which the Peptide exchange result is “+++ (>50 = +++)”.

As to “237 (LPRAGGAF; listed as Homo sapiens) [compound 237]”, the Peptide exchange entry is recorded as “++++ (>75% = ++++)”.

On to “238 (LPRAGGAFLM; listed as Homo sapiens) [compound 238]”, for which the Peptide exchange result is given as “++++ (>75% = ++++)”.

Consider “239 (VLPRAGGAFLM; listed as Homo sapiens) [compound 239]”, for which the Peptide exchange entry is “+++ (>50 = +++)”.

With “240 (RVMLPKAAL; listed as Homo sapiens) [compound 240]”, the Peptide exchange entry is given as “+++ (>50 = +++)”.

For “242 (IPETASVVAI; listed as Homo sapiens) [compound 242]”, the Peptide exchange result is “+++ (>50 = +++)”.

For “243 (MARTGGMVVI; listed as Homo sapiens) [compound 243]”, the Peptide exchange entry is “++ (>20% = ++)”.

As for “244 (VPAHLVAA; listed as Homo sapiens) [compound 244]”, the Peptide exchange entry was “++ (>20% = ++)”.

With “245 (GPVPSPLAL; listed as Homo sapiens) [compound 245]”, the Peptide exchange result was “++++ (>75% = ++++)”.

For “246 (RPILKEQSSSSF; listed as Homo sapiens) [compound 246]”, the Peptide exchange result is listed as “++++ (>75% = ++++)”.

For “247 (SPVGVGQRL; listed as Homo sapiens) [compound 247]”, the Peptide exchange entry is given as “+++ (>50 = +++)”.

As to “248 (KPYDGIPAS; listed as Homo sapiens) [compound 248]”, the Peptide exchange result was “+++ (>50 = +++)”.

“249 (SPRSGVLL; listed as Homo sapiens) [compound 249]”: the Peptide exchange entry was “+++ (>50 = +++)”.

As to “250 (APAAPAAVPS; listed as Homo sapiens) [compound 250]”, the Peptide exchange result was “++ (>20% = ++)”.

Turning to “251 (MPVDSFNSM; listed as Homo sapiens) [compound 251]”, the Peptide exchange result is “++++ (>75% = ++++)”.
